Each block holds one binder with its values, some of them ahead of it.
How the values were obtained:
P5mSN = biological target: T1, P5mSN; experiment: two-hybrid library CCNG1;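 note: natural log of median RNA to DNA barcode read ratio; higher means stronger binding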
T1 chain: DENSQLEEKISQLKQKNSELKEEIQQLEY

P9mSN = biological target: T2, P9mSN; experiment: two-hybrid library CCNG1;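 note: natural log of median RNA to DNA barcode read ratio; higher means stronger binding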
T2 chain: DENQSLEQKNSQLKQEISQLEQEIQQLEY

P8mSN = biological target: T3, P8mSN; experiment: two-hybrid library CCNG1;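 note: natural log of median RNA to DNA barcode read ratio; higher means stronger binding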
T3 chain: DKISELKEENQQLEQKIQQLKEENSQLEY

P6mSN = biological target: T4, P6mSN; experiment: two-hybrid library CCNG1;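 note: natural log of median RNA to DNA barcode read ratio; higher means stronger binding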
T4 chain: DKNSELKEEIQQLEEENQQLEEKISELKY

P3mSN = biological target: T5, P3mSN; experiment: two-hybrid library CCNG1;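 note: natural log of median RNA to DNA barcode read ratio; higher means stronger binding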
T5 chain: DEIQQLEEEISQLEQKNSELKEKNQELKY

P7mSN = biological target: T6, P7mSN; experiment: two-hybrid library CCNG1;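 note: natural log of median RNA to DNA barcode read ratio; higher means stronger binding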
T6 chain: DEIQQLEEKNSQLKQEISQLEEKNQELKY

4H496-bA = biological target: T7, 4H496-bA; experiment: two-hybrid library CCNG1
T7 chain: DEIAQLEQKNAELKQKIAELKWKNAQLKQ

4H3632-bA = biological target: T8, 4H3632-bA; experiment: two-hybrid library CCNG1
T8 chain: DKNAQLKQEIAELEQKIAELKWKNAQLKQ

P6SC1 = biological target: T9, P6SC1; experiment: two-hybrid library CC1; conditions: mean of both orientations
T9 chain: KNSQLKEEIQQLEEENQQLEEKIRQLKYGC

P5 = biological target: T10, P5; experiment: two-hybrid library CC1; conditions: mean of both orientations
T10 chain: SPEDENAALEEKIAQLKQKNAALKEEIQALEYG

P7 = biological target: T11, P7; experiment: two-hybrid library CC1; conditions: mean of both orientations
T11 chain: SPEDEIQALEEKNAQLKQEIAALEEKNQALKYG

P8mS = biological target: T12, P8mS; experiment: two-hybrid library CC1; conditions: mean of both orientations
T12 chain: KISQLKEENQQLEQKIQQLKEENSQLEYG

P8 = biological target: T13, P8; experiment: two-hybrid library CC1; conditions: mean of both orientations
T13 chain: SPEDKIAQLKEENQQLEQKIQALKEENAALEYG

P5SC2 = biological target: T14, P5SC2; experiment: two-hybrid library CC1; conditions: mean of both orientations
T14 chain: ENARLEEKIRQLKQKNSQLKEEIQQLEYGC

P5mS = biological target: T15, P5mS; experiment: two-hybrid library CC1; conditions: mean of both orientations
T15 chain: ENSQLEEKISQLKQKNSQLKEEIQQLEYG

P6SC2 = biological target: T16, P6SC2; experiment: two-hybrid library CC1; conditions: mean of both orientations
T16 chain: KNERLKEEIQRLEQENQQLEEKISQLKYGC

P4mS = biological target: T17, P4mS; experiment: two-hybrid library CC1
T17 chain: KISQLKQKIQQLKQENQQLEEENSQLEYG

P9 = biological target: T18, P9; experiment: two-hybrid library CC1; conditions: mean of both orientations
T18 chain: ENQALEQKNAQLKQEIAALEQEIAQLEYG

P6 = biological target: T19, P6; experiment: two-hybrid library CC1; conditions: mean of both orientations
T19 chain: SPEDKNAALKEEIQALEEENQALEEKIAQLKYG

P6mS = biological target: T20, P6mS; experiment: two-hybrid library CC1; conditions: mean of both orientations
T20 chain: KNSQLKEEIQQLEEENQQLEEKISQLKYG

P7mS = biological target: T21, P7mS; experiment: two-hybrid library CC1; conditions: mean of both orientations
T21 chain: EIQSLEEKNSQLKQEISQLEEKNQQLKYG

P5SC1 = biological target: T22, P5SC1; experiment: two-hybrid library CC1; conditions: mean of both orientations
T22 chain: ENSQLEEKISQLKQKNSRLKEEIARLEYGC

- interaction score (P5mSN): -0.781
- interaction score (P9mSN): -0.0425
- interaction score (P8mSN): -0.172
- interaction score (P6mSN): -0.522
- interaction score (P3mSN): -0.0204
- interaction score (P7mSN): -0.239
Binder: DEIQQLEEEISQLEQKNSELKEKNQELKY [P3mSN]

- interaction score (4H496-bA): 0.728
- interaction score (4H3632-bA): 1.23
Binder: DKNAQLKQEIAELEQKIAELKWKNAQLKQ [4H3632-bA]

Binder: KISQLKQKIQQLKQENQQLEEENSQLEYG [P4mS]
- interaction score (P6SC1): -2.65
- interaction score (P5): -3.02
- interaction score (P7): -2.78
- interaction score (P8mS): -2.9
- interaction score (P8): -2.9
- interaction score (P5SC2): -2.82
- interaction score (P5mS): -2.9
- interaction score (P6SC2): -2.64
- interaction score (P4mS): -3.22
- interaction score (P9): -2.65
- interaction score (P6): -2.75
- interaction score (P6mS): -3
- interaction score (P7mS): -2.94
- interaction score (P5SC1): -2.92

Reference: paper PMC10397247
